According to patent publication US10058586B2, “Use of human small leucine zipper protein in adipocyte differentiation procedure” (Korea University Research and Business Foundation, priority 2013, dated 2018):

Experiments:
HDAC3 = HDAC3 ubiquitination (Ha-UB, GST pull-down) in 293T cells; type: cell-based; conditions: ligand treated (10 nM RZD, 24 hours)
Protocol: Therefore, in order to understand a regulation mechanism of sLZIP in the PPARγ2 transcriptional activity by binding to the FABP4 promoter region, an effect of sLZIP on the interaction between PPARγ2 and HDAC3 was examined. For this purpose, 293T cells were transfected with GST-HDAC3, Myc-PPARγ2 and Flag-sLZIP, and were treated or not treated with 10 nM of RZD for 24 hours. Cell lysates were subjected to GST pull-down analysis using a glutathione 4B bead, and a protein complex was analyzed in SDS-PAGE, and then immunoblotted with anti-GST, anti-Myc and anti-Flag antibodies (FIG. 6A). GST-HDAC3, GST-PPARγ2, Myc-PPARγ2, Flag-sLZIP and Ha-UB were expressed in the 293T cells, and the cells were treated with 10 nM of RZD for 24 hours. Cell lysates were subjected to GST pull-down analysis (FIG. 6B). GST-PPARγ2 and Flag-sLZIP were expressed in the 293T cells and treated with 10 nM of RZD for 24 hours. Cell lysates were subjected to GST pull-down analysis, and a protein complex was analyzed in SDS-PAGE, and then immunoblotted with anti-PGC1α, anti-GST and anti-Flag antibodies (FIG. 6C).

Solubility of sLZIP = type: physicochemical; conditions: saline or buffer solution
PPARγ2 = molecular target: T1, PPARγ2 (Homo sapiens, UniProt P37231); test: FABP4 enhancer-luciferase reporter analysis of PPARγ2 transcriptional activity in 293T cells; type: cell-based; parameters: expressed in transfected cells; host or cells: 293T cells; conditions: sLZIP 0.1 to 0.5 μg, 10 nM RZD
T1 sequence (P37231 1-505): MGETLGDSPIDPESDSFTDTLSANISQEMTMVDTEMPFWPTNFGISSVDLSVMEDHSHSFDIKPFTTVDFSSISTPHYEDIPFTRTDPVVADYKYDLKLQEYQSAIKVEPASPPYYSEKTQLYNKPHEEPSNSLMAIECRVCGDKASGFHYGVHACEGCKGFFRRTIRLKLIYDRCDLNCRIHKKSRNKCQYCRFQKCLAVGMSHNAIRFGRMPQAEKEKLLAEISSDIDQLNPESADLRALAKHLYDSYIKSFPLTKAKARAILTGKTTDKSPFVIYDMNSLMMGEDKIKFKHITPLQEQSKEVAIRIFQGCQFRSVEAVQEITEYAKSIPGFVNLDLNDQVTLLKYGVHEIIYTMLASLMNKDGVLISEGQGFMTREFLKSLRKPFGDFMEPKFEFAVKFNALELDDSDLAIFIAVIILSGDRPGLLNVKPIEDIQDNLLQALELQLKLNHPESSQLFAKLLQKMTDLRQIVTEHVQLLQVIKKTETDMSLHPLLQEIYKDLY
Protocol: Appropriately transfected cells were washed with cold PBS twice, and a reporter lysis buffer (Promega) was used and lysed in a culture dish. Luciferase analysis was performed using a luciferase analysis system (Promega Corporation, Madison, Wis.). A luciferase activity was recorded in Luminometer 20/20^n (Turner BioSystems, Sunnyvale, Calif.) according to instructions of the manufacturer. The luciferase activity was normalized to a β-galactosidase activity. For β-galactosidase analysis, CMV-β-galactosidase was transfected with luciferase reporter genes. All pieces of data were represented as mean±standard deviation of the results from at least three independent experiments.
A DNA binding ability of sLZIP with various elements in the FABP4 enhancer region was examined. For this purpose, recombinant His-sLZIP fusion proteins (3 μg) were incubated with γ-^32P-labeled oligonucleotide probes containing expected CREB binding elements (FIG. 7B). The γ-^32P-labeled oligonucleotide probes were incubated while an amount of purified His-sLZIPs was increased. […]
Adipocyte differentiation is a well-regulated procedure. […] A promoter activity was measured according to luciferase analysis (FIG. 8B). […] Total RNA was extracted from the cells, and an mRNA expression level of mouse LZIPs was measured using RT-PCR analysis. […]

B1: sLZIP: human small leucine-zipper protein, isoform of LZIP, 354 amino acids, no transmembrane domain; GenBank FJ263669, SEQ ID NO: 1 (protein, listed as Homo sapiens)
chain: MELELDAGDQDLLAFLLEESGDLGTAPDEAVRAPLDWALPLSEVPSDWEVDDLLCSLLSPPASLNILSSSNPCLVHHDHTYSLPRETVSMDLESESCRKEGTQMTPQHMEELAEQEIARLVLTDEEKSLLEKEGLILPETLPLTKTEEQILKRVRRKIRNKRSAQESRRKKKVYVGGLESRVLKYTAQNMELQNKVQLLEEQNLSLLDQLRKLQAMVIEISNKTSSSSMYSSDTRGSLPAEHGVLSRQLRALPSEDPYQLELPALQSEVPKDSTHQWLDGSDCVLQAPGNTSCLLHYMPQAPSAEPPLEWPFPDLFSEPLCRGPILPLQANLTRKGGWLPTGSPSVILQDRYSG
For B1, the HDAC3 ubiquitination (HDAC3) was “inhibited HDAC3 ubiquitination”, the solubility (Solubility of sLZIP) was “very soluble in a saline or a buffer solution” and the “transcriptional activity of PPARγ2 (FABP4 enhancer-luciferase)” value (PPARγ2) was “decreased the transcriptional activity of PPARγ2 in a concentration-dependent manner”.
